Measurements: patent US7985715B2 (priority 2004, dated 2011)
One block for each molecule: values may come before it. Ends that are not written are not given here.

Experiments:
[1] = test system: Anti-FLAG® M2 monoclonal antibody; assay type: binding
[2] = test system: Anti-FLAG® M2 monoclonal antibody; conditions: cited from earlier work
[3] = target: fluorescently labeled Anti-FLAG® M2 monoclonal antibody (Sigma); experiment: fluorescence microarray: peptides immobilized on epoxide slide, probed with fluorescently labeled antibody

Molecule: MET-ASP-TYR-LYS-ASP-HIS-ASP-GLY-ASP-TYR-LYS-ASP-HIS-ASP-ILE-ASP-TYR-LYS-ASP-ASP-ASP-ASP-LYS [3×FLAG® peptide]
binding of anti-FLAG Mab in the microarray (fluorescence) [1]: bound

Molecule: ASP-TYR-LYS-ASP-ASP-ASP-ASP-LYS [FLAG® peptide]
binding by the commercially available antibody [2]: bound

Mean Fluorescence Units (fluorescence units) [3]: 32500
B1: artificial receptor No. 70 (n=3): peptide building blocks RM HM DD (designed binder)
peptide 1: KAGAGRGM-NHMe
peptide 2: Ac-KAGAGHGM-NHMe
peptide 3: Ac-KAGAGDGD-NHMe
modifications: not fully specified (N-terminus)

Mean Fluorescence Units (fluorescence units) [3]: 34500
B2: artificial receptor No. 68 (n=3): peptide building blocks RM HM MY (designed binder)
peptide 1: KAGAGRGM-NHMe
peptide 2: Ac-KAGAGHGM-NHMe
peptide 3: Ac-KAGAGMGY-NHMe
modifications: not fully specified (N-terminus)

Mean Fluorescence Units (fluorescence units) [3]: 47600
B3: artificial receptor No. 133 (n=4): peptide building blocks RM RY QH MY (designed binder)
peptide 1: KAGAGRGM-NHMe
peptide 2: Ac-KAGAGRGY-NHMe
peptide 3: Ac-KAGAGQGH-NHMe
peptide 4: Ac-KAGAGMGY-NHMe
modifications: not fully specified (N-terminus)

Mean Fluorescence Units (fluorescence units) [3]: 47800
B4: artificial receptor No. 71 (n=3): peptide building blocks RM MY TY (designed binder)
peptide 1: KAGAGRGM-NHMe
peptide 2: Ac-KAGAGMGY-NHMe
peptide 3: Ac-KAGAGTGY-NHMe
modifications: not fully specified (N-terminus)

Mean Fluorescence Units (fluorescence units) [3]: 57200
B5: artificial receptor No. 89 (n=3): peptide building blocks RY HM MY (designed binder)
peptide 1: Ac-KAGAGRGY-NHMe
peptide 2: Ac-KAGAGHGM-NHMe
peptide 3: Ac-KAGAGMGY-NHMe

Mean Fluorescence Units (fluorescence units) [3]: 65000
B6: artificial receptor No. 278 (n=5): peptide building blocks RM RY QM MY TY (designed binder)
peptide 1: KAGAGRGM
peptide 2: KAGAGRGY
peptide 3: KAGAGQGM
peptide 4: KAGAGMGY
peptide 5: KAGAGTGY
modifications: not fully specified; N-terminal acetyl (Ac-HN-); C-terminal methyl amide (-C(O)-NH-CH3)

Mean Fluorescence Units (fluorescence units) [3]: 32600
B7: artificial receptor No. 56 (n=3): peptide building blocks RM QH MY (designed binder)
peptide 1: Ac-KAGAGRGM-NHMe
peptide 2: Ac-KAGAGQGH-NHMe
peptide 3: Ac-KAGAGMGY-NHMe

Mean Fluorescence Units (fluorescence units) [3]: 39500
B8: artificial receptor No. 46 (n=3): peptide building blocks RM RY QH (designed binder)
peptide 1: KAGAGRGM-NHMe
peptide 2: Ac-KAGAGRGY-NHMe
peptide 3: Ac-KAGAGQGH-NHMe
modifications: not fully specified (N-terminus)

Mean Fluorescence Units (fluorescence units) [3]: 52100
B9: artificial receptor No. 72 (n=3): peptide building blocks RM MY DD (designed binder)
peptide 1: KAGAGRGM-NHMe
peptide 2: Ac-KAGAGMGY-NHMe
peptide 3: Ac-KAGAGDGD-NHMe
modifications: not fully specified (N-terminus)

Mean Fluorescence Units (fluorescence units) [3]: 47700
B10: artificial receptor No. 1 (n=1): peptide building block RM (peptide)
peptide: KAGAGRGM-NHMe
modifications: not fully specified (N-terminus)

Mean Fluorescence Units (fluorescence units) [3]: 54400
B11: artificial receptor No. 50 (n=3): peptide building blocks RM RY MY (designed binder)
peptide 1: KAGAGRGM-NHMe
peptide 2: Ac-KAGAGRGY-NHMe
peptide 3: Ac-KAGAGMGY-NHMe
modifications: not fully specified (N-terminus)

Mean Fluorescence Units (fluorescence units) [3]: 53500
B12: artificial receptor No. 22 (n=2): peptide building blocks RY MY (designed binder)
peptide 1: Ac-KAGAGRGY-NHMe
peptide 2: Ac-KAGAGMGY-NHMe

Mean Fluorescence Units (fluorescence units) [3]: 39800
B13: artificial receptor No. 69 (n=3): peptide building blocks RM HM TY (designed binder)
peptide 1: KAGAGRGM-NHMe
peptide 2: Ac-KAGAGHGM-NHMe
peptide 3: Ac-KAGAGTGY-NHMe
modifications: not fully specified (N-terminus)

Mean Fluorescence Units (fluorescence units) [3]: 39800
B14: artificial receptor No. 49 (n=3): peptide building blocks RM RY HM (designed binder)
peptide 1: KAGAGRGM-NHMe
peptide 2: Ac-KAGAGRGY-NHMe
peptide 3: Ac-KAGAGHGM-NHMe
modifications: not fully specified (N-terminus)

Mean Fluorescence Units (fluorescence units) [3]: 64600
B15: artificial receptor No. 7 (n=1): peptide building block MY (peptide)
peptide: KAGAGMGY-NHMe
modifications: not fully specified (N-terminus)

Mean Fluorescence Units (fluorescence units) [3]: 40900
B16: artificial receptor No. 65 (n=3): peptide building blocks RM QY MY (designed binder)
peptide 1: KAGAGRGM-NHMe
peptide 2: Ac-KAGAGQGY-NHMe
peptide 3: Ac-KAGAGMGY-NHMe
modifications: not fully specified (N-terminus)

Mean Fluorescence Units (fluorescence units) [3]: 47800
B17: artificial receptor No. 61 (n=3): peptide building blocks RM QM MY (designed binder)
peptide 1: Ac-KAGAGRGM-NHMe
peptide 2: Ac-KAGAGQGM-NHMe
peptide 3: Ac-KAGAGMGY-NHMe

Mean Fluorescence Units (fluorescence units) [3]: 46700
B18: artificial receptor No. 93 (n=3): peptide building blocks RY MY DD (designed binder)
peptide 1: Ac-KAGAGRGY-NHMe
peptide 2: Ac-KAGAGMGY-NHMe
peptide 3: Ac-KAGAGDGD-NHMe

Mean Fluorescence Units (fluorescence units) [3]: 35100
B19: artificial receptor No. 10 (n=2): peptide building blocks RM TY (designed binder)
peptide 1: KAGAGRGM-NHMe
peptide 2: Ac-KAGAGTGY-NHMe
modifications: not fully specified (N-terminus)

Mean Fluorescence Units (fluorescence units) [3]: 46800
B20: artificial receptor No. 40 (n=2): peptide building blocks HM MY (designed binder)
peptide 1: Ac-KAGAGHGM-NHMe
peptide 2: Ac-KAGAGMGY-NHMe

Mean Fluorescence Units (fluorescence units) [3]: 64600
B21: artificial receptor No. 15 (n=2): peptide building blocks RM MY (designed binder)
peptide 1: Ac-KAGAGRGM-NHMe
peptide 2: Ac-KAGAGMGY-NHMe
